Earlier results as cited in US6444791B1, “Methods and compositions for the treatment of keratoconus using protease inhibitors” (K-Quay Enterprises, LLC, priority 1999, dated 2002).
Where two headings read alike, the source gives them in different places. Non-standard residues stand in square brackets, D forms with d. Residues, ends and D or L forms follow the SMILES beside them. No end group written: not given here. *: point of attachment. Sta = CC(C)C[C@H](N)[C@@H](O)CC(=O)O; Isovaleryl = CC(C)CC(=O)*

Legend:
[1] = system: gelatinolytic and caseinolytic activities; conditions: in situ zymography, healthy control and keratoconic specimens
[2] = target: T1, gelatinase, type IV collagenase (Homo sapiens, UniProt P08253); conditions: keratoconus keratocyte culture media
T1 construct: host or cells: keratoconus keratocyte culture media (endogenous, secreted)
T1 sequence (P08253 110-660): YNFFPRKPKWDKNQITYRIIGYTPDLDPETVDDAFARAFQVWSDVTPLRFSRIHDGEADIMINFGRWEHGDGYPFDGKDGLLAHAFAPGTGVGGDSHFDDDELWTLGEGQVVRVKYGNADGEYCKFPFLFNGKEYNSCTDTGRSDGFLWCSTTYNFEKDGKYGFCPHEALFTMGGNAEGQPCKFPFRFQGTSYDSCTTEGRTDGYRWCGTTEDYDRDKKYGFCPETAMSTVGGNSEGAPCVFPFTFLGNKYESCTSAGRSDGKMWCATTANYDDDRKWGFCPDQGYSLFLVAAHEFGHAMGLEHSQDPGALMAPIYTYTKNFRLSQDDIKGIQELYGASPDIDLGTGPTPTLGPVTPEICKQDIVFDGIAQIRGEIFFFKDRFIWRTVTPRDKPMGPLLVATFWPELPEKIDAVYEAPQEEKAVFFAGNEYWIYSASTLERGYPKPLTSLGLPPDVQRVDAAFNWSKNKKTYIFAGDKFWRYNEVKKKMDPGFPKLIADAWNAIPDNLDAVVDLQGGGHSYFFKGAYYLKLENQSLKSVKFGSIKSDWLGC

proteinase-3 = target: T2, proteinase-3 (Homo sapiens, UniProt P24158)
T2 sequence (P24158 28-248): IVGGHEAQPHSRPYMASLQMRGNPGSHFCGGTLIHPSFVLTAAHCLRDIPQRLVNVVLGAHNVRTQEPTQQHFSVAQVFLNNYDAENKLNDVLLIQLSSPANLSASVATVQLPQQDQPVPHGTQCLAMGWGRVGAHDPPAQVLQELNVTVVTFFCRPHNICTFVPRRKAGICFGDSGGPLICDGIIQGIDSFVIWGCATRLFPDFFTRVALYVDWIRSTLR

elastase [3] = target: T3, elastase (Homo sapiens, UniProt P08246); conditions: R-type tear fluid; from calculated molar ratios of serpins
T3 sequence (P08246 30-267): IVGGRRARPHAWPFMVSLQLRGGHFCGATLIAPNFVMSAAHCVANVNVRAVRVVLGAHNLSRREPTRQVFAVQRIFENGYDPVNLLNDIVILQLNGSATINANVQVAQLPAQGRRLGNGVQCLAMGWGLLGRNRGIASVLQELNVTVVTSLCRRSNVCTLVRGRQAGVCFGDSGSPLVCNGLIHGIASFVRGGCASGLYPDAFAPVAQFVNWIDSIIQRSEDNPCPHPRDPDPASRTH

elastase [4] = target: T3, elastase
cathepsin G = target: T4, cathepsin G (Homo sapiens, UniProt P08311)
T4 sequence (P08311 21-244): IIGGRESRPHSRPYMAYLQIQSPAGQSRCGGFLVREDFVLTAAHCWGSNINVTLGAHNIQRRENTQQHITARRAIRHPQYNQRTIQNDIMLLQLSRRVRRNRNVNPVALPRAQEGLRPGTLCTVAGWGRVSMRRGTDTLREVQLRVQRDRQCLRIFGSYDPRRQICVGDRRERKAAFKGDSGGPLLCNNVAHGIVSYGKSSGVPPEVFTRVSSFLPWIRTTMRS

HIV virus = conditions: cell culture

Molecule: CC(C)C[C@H](NC(=O)[C@H]1O[C@@H]1C(=O)O)C(=O)NCCCCN=C(N)N [E-64]
- effect on digestion of gelatin and casein [1]: substantially reduced

Molecule: O=S(=O)(F)Cc1ccccc1 [phenylmethyl sulfonyl fluoride]
- effect on digestion of gelatin and casein [1]: substantially reduced
- effect on gelatinolytic activity ([2]; lmM): not effected

Molecule: CC(=O)N[C@@H](CC(C)C)C(=O)N[C@@H](CC(C)C)C(=O)N[C@H](C=O)CCCNC(=N)N [leupeptin]
- effect on digestion of gelatin and casein [1]: substantially reduced

Molecule: c1cnc2c(c1)ccc1cccnc12 [1, 10-phenanthroline]
- effect on digestion of gelatin and casein [1]: failed to block

Molecule: elafin: protease inhibitor (6-9 kDa), potent inhibitor of proteinase-3 (AQEPVKGPVSTKPGSCPIILIRCAMLNPPNRCLKDTDCPGIKKCCEGSCGMACFVPQ; ends and bridges not checked; cysteine pairing not given here; UniProt P19957 61-117, looked up)
- inhibition of proteinase-3 (proteinase-3): potent inhibitors

Molecule: OCCS [B-mercaptoethanol]
- effect on gelatinolytic activity [2]: inactivated

Molecule: alp1: α-1 protease inhibitor, a major protease inhibitor in human plasma, glycoprotein of 53 kDa
- inhibition of proteinase-3 (proteinase-3): potent inhibitors

Molecule: O[C@H](CS)[C@H](O)CS (racemic) [dithiothreitol]
- effect on gelatinolytic activity [2]: inactivated

Molecule: CC(C)CC(=O)N[C@H](C(=O)N[C@H](C(=O)N[C@@H](CC(C)C)[C@@H](O)CC(=O)N[C@@H](C)C(=O)N[C@@H](CC(C)C)[C@@H](O)CC(=O)O)C(C)C)C(C)C [pepstatin] (Isovaleryl-VV[Sta]A[Sta]-OH)
- effect on digestion of gelatin and casein [1]: failed to block

B1: SLPI: secretory leucocyte protease inhibitor, an 11.7 kDa elastase and cathepsin G specific inhibitor (protein, UniProt P03973 26-132, looked up)
Antileukoproteinase: SGKSFKAGVCPPKKSAQCLRYKKPECQSDWQCPGKKRCCPDTCGIKCLDPVDTPNPTRRKPGKCPVTYGQCLMLNPPNFCEMDGQCKRDLKCCMGMCGKSCVSPVKA
- share of the total elastase inhibitory activity (elastase [3]): ≥ 95%
- inhibition of elastase (elastase [4]): potent inhibitor
- inhibition of cathepsin G (cathepsin G): potent inhibitor
- inhibition of proteinase-3 (proteinase-3): no capacity to inhibit
- cytotoxicity to E. coli (E. coli): cytotoxic
- cytotoxicity to Staphylococcus aureus (Staphylococcus aureus): cytotoxic
- effect on transmission and replication of HIV virus (HIV virus): inhibits

B2: α2-M: α2-macroglobulin, high-molecular-weight (718 kD) homotetrameric glycoprotein protease inhibitor (protein, UniProt P01023 24-1474, looked up)
Alpha-2-macroglobulin: SVSGKPQYMVLVPSLLHTETTEKGCVLLSYLNETVTVSASLESVRGNRSLFTDLEAENDVLHCVAFAVPKSSSNEEVMFLTVQVKGPTQEFKKRTTVMVKNEDSLVFVQTDKSIYKPGQTVKFRVVSMDENFHPLNELIPLVYIQDPKGNRIAQWQSFQLEGGLKQFSFPLSSEPFQGSYKVVVQKKSGGRTEHPFTVEEFVLPKFEVQVTVPKIITILEEEMNVSVCGLYTYGKPVPGHVTVSICRKYSDASDCHGEDSQAFCEKFSGQLNSHGCFYQQVKTKVFQLKRKEYEMKLHTEAQIQEEGTVVELTGRQSSEITRTITKLSFVKVDSHFRQGIPFFGQVRLVDGKGVPIPNKVIFIRGNEANYYSNATTDEHGLVQFSINTTNVMGTSLTVRVNYKDRSPCYGYQWVSEEHEEAHHTAYLVFSPSKSFVHLEPMSHELPCGHTQTVQAHYILNGGTLLGLKKLSFYYLIMAKGGIVRTGTHGLLVKQEDMKGHFSISIPVKSDIAPVARLLIYAVLPTGDVIGDSAKYDVENCLANKVDLSFSPSQSLPASHAHLRVTAAPQSVCALRAVDQSVLLMKPDAELSASSVYNLLPEKDLTGFPGPLNDQDNEDCINRHNVYINGITYTPVSSTNEKDMYSFLEDMGLKAFTNSKIRKPKMCPQLQQYEMHGPEGLRVGFYESDVMGRGHARLVHVEEPHTETVRKYFPETWIWDLVVVNSAGVAEVGVTVPDTITEWKAGAFCLSEDAGLGISSTASLRAFQPFFVELTMPYSVIRGEAFTLKATVLNYLPKCIRVSVQLEASPAFLAVPVEKEQAPHCICANGRQTVSWAVTPKSLGNVNFTVSAEALESQELCGTEVPSVPEHGRKDTVIKPLLVEPEGLEKETTFNSLLCPSGGEVSEELSLKLPPNVVEESARASVSVLGDILGSAMQNTQNLLQMPYGCGEQNMVLFAPNIYVLDYLNETQQLTPEIKSKAIGYLNTGYQRQLNYKHYDGSYSTFGERYGRNQGNTWLTAFVLKTFAQARAYIFIDEAHITQALIWLSQRQKDNGCFRSSGSLLNNAIKGGVEDEVTLSAYITIALLEIPLTVTHPVVRNALFCLESAWKTAQEGDHGSHVYTKALLAYAFALAGNQDKRKEVLKSLNEEAVKKDNSVHWERPQKPKAPVGHFYEPQAPSAEVEMTSYVLLAYLTAQPAPTSEDLTSATNIVKWITKQQNAQGGFSSTQDTVVALHALSKYGAATFTRTGKAAQVTIQSSGTFSSKFQVDNNNRLLLQQVSLPELPGEYSMKVTGEGCVYLQTSLKYNILPEKEEFPFALGVQTLPQTCDEPKAHTSFQISLSVSYTGSRSASNMAIVDVKMVSGFIPLKPTVKMLERSNHVSRTEVSSNHVLIYLDKVSNQTLSLFFTVLQDVPVRDLKPAIVKVYDYYETDEFAIAEYNAPCSKDLGNA
- rate of reaction with PMN cell proteases (PMN cell proteases): relatively slow rate
